{
  "source": "patent US20220144937A1",
  "about": "(JIANGSU HENGRUI MEDICINE, published 2022)",
  "binders": {"B1": {"name": "mAb1706 (antibody, V domains shown)", "VH": "EVQLVESGGGLVQPGRSLKLSCAASGFTFSHYYMAWVRQAPKKGLEWVTSINYEGNSAYYGDSVKGRFTISRDNAKSTLYLQMDSLRSEDTATYYCATETLRESLDYWGQGVMVTVSS", "VL": "DIQMTQSPSSMSVSLGDRVTITCRASQDIGNYLSWYQQKLGKSPKLMIHSASNLEVGVPSRFSGSRSGSDYSLTINTLESEDPGIYFCLQHKQFPRTFGGGTKLELK", "notes": "Murine hybridoma antibody"}},
  "key": {"[1]": {"biological_target": "T1, human IL-5 with his-tag (rhIL-5-his) (human, UniProt P05113 20-134)", "T1 construct": "It was expressed in HEK293 and purified from the supernatant; also called HuIL-5; recombinant human IL-5", "T1 sequence": "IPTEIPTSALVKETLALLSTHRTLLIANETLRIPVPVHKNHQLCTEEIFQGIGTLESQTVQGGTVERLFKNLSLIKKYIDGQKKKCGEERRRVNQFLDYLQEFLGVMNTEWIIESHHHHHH", "test": "Biacore", "experimental": "(§1) The affinity of the murine IL-5 antibody to be tested with human IL-5 was measured by Biacore T200 (GE) instrument.\n(§2) The protein A biosensor chip was used to affinity capture of the molecules to be tested, and then the antigen (recombinant human and cyno IL-5 prepared in Example 1) flowed through the surface of the chip, and the reaction signal was detected in real time with the Biacore T200 instrument to obtain the binding and dissociation curves. After the dissociation of each experimental cycle was completed, the biosensor chip was washed and regenerated with glycine-hydrochloric acid regeneration solution (pH 1.5). BIA evaluation version 4.1 GE software was used to fit the data against (1:1) Langmuir model, and the affinity value was obtained and shown in Table 13."}, "[2]": {"biological_target": "T1, human IL-5 with his-tag (rhIL-5-his)", "test": "Biacore T200, antibody captured on protein A chip, antigen in flow, 1:1 Langmuir", "experimental": "as §1, §2"}, "[3]": {"biological_target": "T2, cyno IL-5 with his-tag (cyno (paragraph 156 says rhesus), UniProt P48093 20-134 (rhesus entry))", "T2 construct": "also called rhesus IL-5 with His-tag; monkey IL-5", "T2 sequence": "T1 sequence with T7A, D80G", "test": "Biacore T200, antibody captured on protein A chip, antigen in flow, 1:1 Langmuir", "experimental": "as §1, §2"}, "[4]": {"biological_target": "T1, human IL-5 with his-tag (rhIL-5-his)", "test": "competition ELISA: IL-5 coated, biotin-IL-5Rα (10 µg/ml) as competitor, antibody diluted", "experimental": "To identify the ability of IL-5 antibody to block IL-5 from binding to the extracellular region of recombinantly expressed IL-5α receptor protein, IL-5 (5 μg/ml in PBS) was coated on an ELISA plate and incubated at 37° C. for 1 hour; the liquid was removed, 200 μl/well of 5% skimmed milk blocking solution diluted with PBS was added, and incubated for 2.5 hours in a 37° C. incubator for blocking. After blocking, the blocking solution was removed and the plate was washed with PBST buffer (pH 7.4 PBS comprising 0.05% Tween-20) for 5 times; 25 μl of 10 μg/ml IL-5Rα (in 1% BSA) labeled by a biotin labeling kit (Tojin Chemical, LK03) was added, and then 25 μl of gradient-diluted antibody was added (the antibody competed with IL-5Rα for the binding with IL-5) and incubated at 37° C. for 1 hour. After the incubation, the reaction solution in the microtiter plate was removed, the plate was washed for 5 times with PBST, added with 50 μl/well of Streptavidin-Peroxidase Polymer (Sigma, 52438-250UG) diluted with sample dilution solution at 1:600 and incubated for 1 hour at 37° C."}},
  "note": "Substitutions are numbered along the chain they refer to.",
  "data": [
    {"binder": "B1", "values": [
      {"measurement": "Kd", "setting": "[1]", "value": 0.0383, "unit": "nM"},
      {"measurement": "Kd", "setting": "[2]", "value": 0.0383, "unit": "nM"},
      {"measurement": "Kd", "setting": "[3]", "value": 0.277, "unit": "nM"},
      {"measurement": "IC50", "setting": "[4]", "value": 0.4, "unit": "mg/L"}
    ]}
  ]
}
